The text below walks through data of paper PMC2851846 (Oncogene, 2010).

Assay [1] deals with T1, pCREB/KIX ternary complex on CRE DNA (pCREB/KIX/CRE) (UniProt P16220-2 1-327; P45481 588-683, phosphoserine at 133 (Ser133)). In words: native gel or EMSA.
The target of assay [2] is T1, pCREB/KIX ternary complex on CRE DNA …. The experiment in a line: native gel or EMSA. This is another data set of the same source.

T1 sequence (P16220 whole entry, chain 1 of 2): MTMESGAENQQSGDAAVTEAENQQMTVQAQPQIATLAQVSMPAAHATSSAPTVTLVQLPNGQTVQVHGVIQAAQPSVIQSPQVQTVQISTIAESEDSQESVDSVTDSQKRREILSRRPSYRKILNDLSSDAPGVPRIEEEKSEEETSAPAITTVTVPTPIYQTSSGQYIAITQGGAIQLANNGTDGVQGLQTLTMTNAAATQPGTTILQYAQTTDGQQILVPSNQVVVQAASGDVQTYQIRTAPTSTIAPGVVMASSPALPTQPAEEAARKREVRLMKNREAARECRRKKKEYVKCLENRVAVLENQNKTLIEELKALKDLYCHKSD
T1 sequence (P45481 588-683, chain 2 of 2): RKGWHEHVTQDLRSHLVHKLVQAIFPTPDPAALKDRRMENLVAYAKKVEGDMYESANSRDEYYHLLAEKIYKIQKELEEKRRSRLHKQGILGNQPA

B1: HTLV-1 Tax protein, Tax-His6 (natural protein)
chain: not shown
On to B1, for which the “apparent Kd on vCRE DNA” value in assay [1] turned out to be 2.4 ± 0.1 nM. The “apparent Kd on cyclin D1 CRE DNA” value in assay [2] came to 34 ± 5 nM.
